The results in this text go back to patent US20240384250A1, “FIBROBLAST GROWTH FACTOR 23 MODULATING COMPOUNDS” (THE UAB RESEARCH FOUNDATION, priority 2021, published 2024).

“Also recorded” adds a separate entry of the source. Like-named read-outs stand apart in the source and are kept apart here.

One test has as its target T1, FGF21 (Homo sapiens, UniProt Q9NSA1).
T1 construct: purchased R&D Systems 2539FG025/CF
T1 sequence (Q9NSA1 29-209): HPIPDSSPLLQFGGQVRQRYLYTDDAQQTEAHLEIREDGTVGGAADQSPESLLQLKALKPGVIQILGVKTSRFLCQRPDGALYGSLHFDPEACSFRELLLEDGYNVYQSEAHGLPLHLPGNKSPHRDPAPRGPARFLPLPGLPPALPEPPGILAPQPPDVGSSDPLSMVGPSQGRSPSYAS
Kind of test: Co-immunoprecipitation of FGF with FLAG-tagged sKL on anti-FLAG beads. The format is binding. As for the experimental part:
To study the interaction between FLAG-tagged sKL and different FGF isoforms, co-immunoprecipitation studies were conducted. FLAG beads (A2220, Sigma-Aldrich) were used at 50 ul of 50% stock slurry per sample. Beads were washed 5× with activity buffer (50 mM Tris [pH 7.4], 200 mM NaCl, 0.01% Tween 20, Sigma-Aldrich). Bead spin-down assays were all performed for 2 minutes at 5000 g. Fifty microliters of a 50% slurry of beads per sample was resuspended in 1 ml of activity buffer in a 1.5-ml snap cap tube. One microgram of FLAG-tagged sKL or Carboxy-terminal bacterial alkaline phosphatase (BAPC; P7457, Sigma-Aldrich) was incubated with the beads for 1 hour on a bead rotator. Beads were then pelleted at 5000 g for 2 minutes and washed 5× with activity buffer. Beads were resuspended in 1 ml of activity buffer and samples with 500 ng of FGF. Beads were incubated for 1 hour on a tube rotator, and beads were pelleted and washed as before. One hundred microliters of I× Laemmli sample buffer (1610737, Bio-Rad) with 1.42 M 2-mercaptoethanol was added, and samples were boiled for 5 minutes and analyzed using sodium dodecylsulfate-polyacrylamide gel electrophoresis (SDS-PAGE) and Western blotting, as described below herein.
The sample (20 μl) was loaded onto Mini-PROTEAN TGX Precast Gel 4-20% for experiments with <9 samples (4568094, Bio-Rad) or Criterion TGX Precast Gel 4-20% (5678094, Bio-Rad) for experiments with >9 samples. Gels were run in 1× Tris/Glycine/SDS buffer (1610732, Bio-Rad) at 150 V and stopped when the sample dye reached the end of the gel. Gels were removed and electrotransferred via a semi-dry cassette (1703940, Bio-Rad) in I× Tris/Glycine buffer (1610734, Bio-Rad) with 20% methanol. Gels were transferred onto polyvinylidene diflouride membranes (IPVH00010, Millipore) at 20 V for 1 hour. Membranes were then blocked in 5% dried milk with 0.5% Tween 20 diluted in Tris-buffered saline (TBST; pH 7.5) for 1 hour and probed with antibodies against specific antigens at 1:1000 in TBST with 5% dried milk. Blots were washed 3× for 5 minutes in TBST and probed with HRP-coupled secondary antibodies against specific species at 1:10,000 in TBST with 5% dried milk. Membranes were imaged on the SRX-101A X-ray film developer (Konica Minolta).

Test [1] is described as follows: Serum phosphate and intact FGF23 after sKL injection in rats. The format is in vivo, rat. Conditions: sKL 100 μg/kg tail vein. On the procedure: To determine the half-life of recombinant sKL protein in the circulation, rats were injected with the Strep-tagged mouse sKL that was purified as described above. Each group consisted of 3 male Sprague Dawley rats (9 weeks of age and weighing approximately 300 g). For injections and bleeding, rats were anesthetized with 2.5% isoflurane. For injections, a shielded i.v. catheter (BD Insyte Autoguard 0.7×19 mm, catalog no. 381412) was inserted into the lateral tail vein and flushed with 100 μl of isotonic saline (0.9%). One milliliter of purified sKL protein dissolved in isotonic saline (100 μg/kg) or isotonic saline was then injected, and the catheter was flushed again with 100 μl of isotonic saline. For bleeding, a shielded i.v. catheter was inserted into the lateral tail vein. Blood samples (300 μl) were taken after 1, 3, 5, 10, 15, 30, and 60 minutes as well as 3, 6, 12, and 48 hours. For collections from 15 minutes to 48 hours postinjection, a separate i.v. catheter was inserted each time to draw blood. […] Reactions were stopped with ELISA stop solution (E115, Bethyl Laboratories) and analyzed using the Synergy HI plate reader (BioTek) at 450 nm wavelength. Amounts of sKL were calculated by taking the slope of the standard curve and calculating where the sample points fit in.

For test [2], the system named is intact hearts isolated from adult mice. Kind of test: Isolated heart contractility. Conditions: FGF23 9 ng/ml, 30 minutes. The arrangement: species or system mouse. As for the experimental part:
Isolated heart contractility was performed as described previously. 14,70,71 Briefly, 2- to 3-month-old male CD-1 mice were anesthetized using 3% isoflurane and hearts were carefully removed and placed into oxygenated Ringer's solution composed of 140 mM NaCl, 2.0 mM KCl, 2.5 mM CaCl2), 1.0 mM MgSO4, 1.5 mM K2HPO4, 10 mM N-2-hydroxyethylpiperazine-N-2-ethanesulfonic acid, and 10 mM glucose (pH 7.4). Atria were then removed, and the intact ventricular muscle was attached to small metallic clips hung vertically from a force transducer (ADInstruments) between bipolar platinum-stimulating electrodes and suspended in 25-ml glass tissue chambers (ADInstruments). Heart muscles were perfused with Ringer's solution continuously bubbled with 100% O2 at room temperature. Hearts were stretched to the length of maximum force development and paced at 1 Hz (5 ms pulse duration, 30-60 V; Grass Instruments SD9 Square Pulse Stimulator). After a stable baseline was obtained, hearts were treated with either vehicle or FGF23 (9 ng/ml) alone or in combination with heparin (0.06 USP/ml) while contractile force output was monitored for 30 minutes. Contractile data were recorded and analyzed with LabChart 8 software (ADInstruments). Waveform changes were analyzed for peak contraction force (in millinewtons) and maximum slope of force development and presented as fold change from baseline values.

B1: sKL: recombinant soluble α-klotho ectodomain, mouse aa 35-982 and human aa 34-981, FLAG- or Strep/His-tagged, purified from HEK293 cells (protein)
chain: EPGDGAQTWARFSRPPAPEAAGLFQGTFPDGFLWAVGSAAYQTEGGWQQHGKGASIWDTFTHHPLAPPGDSRNASLPLGAPSPLQPATGDVASDSYNNVFRDTEALRELGVTHYRFSISWARVLPNGSAGVPNREGLRYYRRLLERLRELGVQPVVTLYHWDLPQRLQDAYGGWANRALADHFRDYAELCFRHFGGQVKYWITIDNPYVVAWHGYATGRLAPGIRGSPRLGYLVAHNLLLAHAKVWHLYNTSFRPTQGGQVSIALSSHWINPRRMTDHSIKECQKSLDFVLGWFAKPVFIDGDYPESMKNNLSSILPDFTESEKKFIKGTADFFALCFGPTLSFQLLDPHMKFRQLESPNLRQLLSWIDLEFNHPQIFIVENGWFVSGTTKRDDAKYMYYLKKFIMETLKAIKLDGVDVIGYTAWSLMDGFEWHRGYSIRRGLFYVDFLSQDKMLLPKSSALFYQKLIEKNGFPPLPENQPLEGTFPCDFAWGVVDNYIQVDTTLSQFTDLNVYLWDVHHSKRLIKVDGVVTKKRKSYCVDFAAIQPQIALLQEMHVTHFRFSLDWALILPLGNQSQVNHTILQYYRCMASELVRVNITPVVALWQPMAPNQGLPRLLARQGAWENPYTALAFAEYARLCFQELGHHVKLWITMNEPYTRNMTYSAGHNLLKAHALAWHVYNEKFRHAQNGKISIALQADWIEPACPFSQKDKEVAERVLEFDIGWLAEPIFGSGDYPWVMRDWLNQRNNFLLPYFTEDEKKLIQGTFDFLALSHYTTILVDSEKEDPIKYNDYLEVQEMTDITWLNSPSQVAVVPWGLRKVLNWLKFKYGDLPMYIISNGIDDGLHAEDDQLRVYYMQNYINEALKAHILDGINLCGYFAYSFNDRTAPRFGLYRYAADQFEPKASMKHYRKIIDSNGFPGPETLERFCPEEFTVCTECSFFHTRKS
modifications: left off: small tags and cut ends
notes: recombinant soluble α-klotho ectodomain, mouse aa 35-982 and human aa 34-981, FLAG- or Strep/His-tagged, purified from HEK293 cells
As for B1, the “FGF21 co-precipitation with immobilized FLAG-sKL” value with FGF21 is reported as “did not bind”; with FGF21 (listed as FLAG-sKL), “does not binds FGF21”. Moreover, the serum phosphate levels result in test [1] (serial bleeds) is listed as “not significantly altered”. Moreover, the “serum intact FGF23 levels” value in test [1] (serial bleeds incl. 48 hours) is “increases in serum concentrations of FGF23; also recorded: significantly elevated”.

B2: FGF23: recombinant fibroblast growth factor 23 protein from R&D Systems (protein)
chain: YPDTSPLLGSNWGSLTHLYTATARTSYHLQIHRDGHVDGTPHQTIYSALMITSEDAGSVVITGAMTRRFLCMDLHGNIFGSLHFSPENCKFRQWTLENGYDVYLSQKHHYLVSLGRAKRIFQPGTNPPPFSQFLARRNEVPLLHFYTVRPRRHTRSAEDPPERDPLNVLKPRPRATPVPVSCSRELPSAEEGGPAASDPLGVLRRGRGDARGGAGGADRCRPFPRFV
B2: in test [2], the peak contraction force result is “increased cardiac contractile force”.
